Data reported in article PMC9359175.

Key:
[1] = molecular target: 5HB-H2 (SARS-CoV-2 5-helix bundle, optimal construct) (SARS-CoV-2) (UniProt P0DTC2); assay: BLI; […]; 20 mM MES pH 6.0, 150 mM NaCl, 0.05% Tween 20, 298 K; 1:1 model
[2] = molecular target: 5HB-H2 (SARS-CoV-2 5-helix bundle, optimal construct) (SARS-CoV-2) (UniProt P0DTC2); assay: BLI; pH 5
[3] = molecular target: 5HB-H2 (SARS-CoV-2 5-helix bundle, optimal construct) (SARS-CoV-2) (UniProt P0DTC2); assay: ITC; […]; 298 K; 20 mM HEPES pH 7.5, 150 mM NaCl; […]
[4] = molecular target: 5HB-H2 (SARS-CoV-2 5-helix bundle, optimal construct) (SARS-CoV-2) (UniProt P0DTC2); assay: BLI; […]; 20 mM HEPES pH 7.5, 150 mM NaCl, 0.05% Tween 20, 298 K; 1:1 model
[5] = molecular target: 5HB-H2 (SARS-CoV-2 5-helix bundle, optimal construct) (SARS-CoV-2) (UniProt P0DTC2); assay: BLI; pH 4.5
[6] = molecular target: 5HB-H2 (SARS-CoV-2 5-helix bundle, optimal construct) (SARS-CoV-2) (UniProt P0DTC2); assay: crystal structure
[7] = molecular target: 5HB-H2 (SARS-CoV-2 5-helix bundle, optimal construct) (SARS-CoV-2) (UniProt P0DTC2); assay: BLI; […]; 20 mM MES pH 5.5, 150 mM NaCl, 0.05% Tween 20, 298 K; 1:1 model

Substance: HR2P, 36-mer peptide derived from SARS-CoV-2 S HR2 (D1168-L1203)
- Kd [1]: 3.22 nM
- Kd [2]: 2.43 nM
- Kd [3]: 5.12 nM
- Kd [4]: 4.91 nM
- Kd [5]: 1.37 nM
- stoichiometry N [6]: 1
- Kd [7]: 3.08 nM
